This test concerns the target SARS-CoV-2 spike protein receptor binding domain (RBD), wild type (SARS-CoV-2, UniProt P0DTC2 319-539). Put plainly: ELISA, RBD protein coated on plate, antibody titrated.

B1: C506 (antibody, V domains shown)
VH: EVQLVESGGGLVQPGGSLRLSCAASGFTFSSYDMHWVRQGTGKGLEWVSVIGTAGDAYYPGSVKGRFTISRENAKNSLYLQMNSLRAGDTAVYYCARMVYDSSGFKGYFDLWGRGTLVTVSS
VL: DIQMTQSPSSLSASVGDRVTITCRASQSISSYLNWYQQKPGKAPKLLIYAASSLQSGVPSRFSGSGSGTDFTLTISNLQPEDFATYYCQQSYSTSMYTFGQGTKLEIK
Molecule B1 gave an EC50 of 5.94 ng/mL.

B2: C507 (antibody, V domains shown)
VH: EVQLVESGGGVVQPGRSLRLSCAASGFTFSSYAIHWVRQAPGKGLEWVAVISFDGSNKYYRDSVKGRFTISRDNGKNTLYLQMNSLRAEDTAVYYCAKAALGYCTNGVCYCDNWGQGTLVTVSS
VL: NFMLTQPHSVSESPGKTVTISCTGSSGSIASNYVQWYQQRPGSAPTTVIYEDNQRPSGVPDRFSGSIDSSSNSASLSISGLKTEDEADYYCQSYDINSLWVFGGGTRLTVL
On to B2, for which the midpoint of the response, the EC50, lay at 5.6 ng/mL.

B3: C511 (antibody, V domains shown)
VH: EVQLVESGGGLVQPGGSLRLSCAATEITVSSNYMTWVRQAPGKGLEWVSVIYPGGSTFYADSVKGRFSISRDNSKNTLYLQMNSLRAEDTAVYYCARDLVVYGLDCWGQGTLVTVSS
VL: DIQLTQSPSFLSASVGDRVTITCRASQGISSYLAWYQQKPGKAPKLLIYAASTLQSGVPSRFSGSGSGTEFTLTISSLQPEDFATYYCQQLNTYPPPFGGGTKVEIK
The molecule B3 returned an EC50 of 1.33 ng/mL.

B4: C515 (antibody, V domains shown)
VH: EVQLVESGGGLVQPGGSLRLSCAASGFIVSSNYMSWVRQAPGKGLEWVSILYSGGSTYYADSVKGRFTISRDNSKNTLYLQMNSLRAEDTAVYYCARDLVVYGADYWGQGTLVTVSS
VL: DIQLTQSPSFLSASVGDRVTITCRASQGISSYLAWYQQKPGKAPKLLIYAASTLQSGVPSRFSGSGSGTEFTLTISSLQPEDFATYYCQQLNSYPPPFGGGTKVEIK
B4 showed an EC50 of 1.73 ng/mL.

B5: C512 (antibody, V domains shown)
VH: QVQLQESGPGLVKPSGTLSLTCAVSAGSISSNNWWSWVRQPPGKGLEWIGEVYHNGNINYNPSLKSRVTLSVDKSKNQFSLKLSSVTAADTAVYYCAKGGDRAMGPEYFDSWGQGTLVTVSS
VL: QSALTQPASVSGSPGQSITISCTGTSSDVGANNYVSWYQQHPGKAPKLMIYDVNERPSGVSNRFSGSKSGNTASLTISGLQTEDEADYYCSSFASSSTLLFGGGTKLTVL
The molecule B5 registered an EC50 of 1.68 ng/mL.

B6: C504 (antibody, V domains shown)
VH: QVQLQESGPGLVKPSETLSLTCTVSGGSISSSYWNWIRQSPGKGLEWIGYIYYDGYTTFNPSLKSRVTISVDTSKNQFSLKLSSVTAADTAFYYCAAGLKGRSSSWYEYWGQGTLVTVSS
VL: DIQMTQSPSSLSASVGDRVTITCRASQSISSYLNWYQQKPGKAPKLLIYATSSLQSGVPSRFSGSGSGTDFTLTITSLQPEDFATYYCQQTYSSPHTFGQGTKLEIK
As to B6, the midpoint of the response, the EC50, lay at 9.08 ng/mL.

B7: C514 (antibody, V domains shown)
VH: EVQLVESGGGLVQPGGSLRLSCAASEFIVTRNYMSWVRQAPGKGLEWVSLIYPGGSTFYADSVKGRFTISRDNSKNTLFLHMNSLRAEDTAVYYCARDLAGRLDYWGQGTLVTVSS
VL: DIQMTQSPSSLSASVGDRVTITCQASQDINNFLNWYQQKPGKAPKLLIYDASNLETGVPSRFSGSGSGTDFTFTISSLQPEDIAIYYCQQYDSLSRLTFGGGTKVEIK
The molecule B7 came in with an EC50 of 0.82 ng/mL.

B8: C517 (antibody, V domains shown)
VH: EVQLVESGGGLVQPGGSLRLSCAASEFIVSRNYMSWVRQAPGKGLEWVSLIYSGGSTYYADSVKGRFTISRDNSKNTLYLQMNSLRAEDTAMYYCARDIAGRLDYWGQGTLVTVSS
VL: DIQMTQSPSSLSASVGDRVTITCQASQDISKYLNWYQQKPGKAPKLLIYDASNLETGVPSRFSGSGSGTDFTFTISSLQPEDFATYYCQHYDSLSRLTFGGGTKVEIK
On to B8, for which it took 0.87 ng/mL to reach a half-maximal effect (EC50). The EC50 values of the last two molecules are within 1.5-fold of each other.

B9: C505 (antibody, V domains shown)
VH: EVQLLESGGGLVQPGGSLRLSCADSGFSFSTYGMSWVRQAPGKGLEWVSTISGSGDNTYHADSVKGRFTISRDNSKNTLYLQMNSLRAEDTAVYYCAKNIAEMSTFDDYFYYYGMDVWGQGTTVTVSS
VL: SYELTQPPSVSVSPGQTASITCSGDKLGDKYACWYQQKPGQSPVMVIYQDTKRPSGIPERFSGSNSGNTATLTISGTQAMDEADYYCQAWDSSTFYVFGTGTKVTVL
B9: the EC50 was 16 ng/mL.

B10: C502 (antibody, V domains shown)
VH: QVQLVQSGAEVKKPGSSVKVSCKASGDTFSSHAINWVRQAPGQGLEWMGRSIPMLGVTTSAQKFKGRVTITADHSTSTVFMDLSSLRSDDTAIYYCARGVVGATPGSFDLWGQGTMVTVSS
VL: EIVMTQSPATLSVSPGKRATLSCRASQSVRSNLAWYQQRPGQAPRLLIYDAATRATGIPTRFSGSGSGTEFTLTISSLQSEDFAVYYCQQYDNGLTFGGGTKVEIK
Regarding B10, the EC50 is 6.48 ng/mL.

B11: C516 (antibody, V domains shown)
VH: QVQLVQSGAEVKKPGSSVKVSCKASGGTFSSYAISWVRQAPGQGLEWMGRIIPMLVIATYARKFQGRVTITADKSTSTAYMELSSLRSEDTAVYYCARGVVAATPGNFDIWGQGTMVTVSS
VL: EIVMTQSPATLSVSPGERATLSCRASQSVSSNLAWYQQKPGQAPRLLIYGASTRATGIPARFSGSGSGTEFTLTISSLQSEDFAVYYCQQYNNGLTFGGGTKVEIK
B11 came in with an EC50 of 5.72 ng/mL. The EC50 values of the last two molecules are within 1.5-fold of each other.

B12: C510 (antibody, V domains shown)
VH: QVQLQQWGAGLLKPSETLSRTCAVYGGSFSGYYWSWFRQSPGKGLEWIGEINHSGSTNYNPSLKNRVTISVDTSKNQFSLMLSSVTAADTAVYYCARGGFGVVINYYYSGMDVWGRGTTVTVSS
VL: not shown
Take B12: the midpoint of the response, the EC50, lay at 308 ng/mL.

B13: C503 (antibody, V domains shown)
VH: QVQLQESGPGLVQPSGTLSLSCTVTGGSISSNNWWSWVRQSPVKGLEWIGEIYHNGNINYNPSLKSRVTMSIDKSKNHFSLKLSSVTAADTAVYYCARGDVLDWFDPWGQGTLVTVS
VL: QSALTQPASVSGSPGQSITFSCTGTSSDVGAYNYISWYQQHPGKAPKLMIYDVNNRPSGVSRRFSGSKSGNTASLTISGLQSEDEADYFCSSYAGNSTVRFGGGTKLTVL
B13 showed an EC50 of 6.55 ng/mL.

B14: C513 (antibody, V domains shown)
VH: EVQLLESGGGLVQPGGSLRLSCVASGFSFSTYAMSWVRQAPGQGLEWVSTITGTSIGTYYADSVKGRFTISRDNSKNTVFLQMKSLRAEDAAVYYCANHPLASGDEYYYYYMDVWGKGTTVTVSS
VL: EIVLTQSPDTLSLSPGERATLSCRASQSVHSKQLAWYQQKPGQAPRLLIYGASSRATGIPDRFSGSGSGTDFTLTISRLEPEDFAVYYCQQYGSIRALTFGGGTKVEIK
Molecule B14 showed an EC50 of 1.31 ng/mL.

B15: C509 (antibody, V domains shown)
VH: QVQLQESGPGLVKPSGTLSLTCAVSGGSISSSNWWSWVRQPPGKGLEWIGEIYNSGSTNYNPSLKSRVTILVDKSKNQFSLKLSSVTAADTAVYYCAGSYSNYIGGVWFDPWGQGTLVTVSS
VL: EIVLTQSPATLSLSPGERATLSCRASQSVSTYLAWYQQKPGQAPRLLIYDASNRATGIPARFSGSGSGTDFTLTISSLEPEDFAVYYCQQRNNWLTFGGGTKVEIK
In the case of B15, the EC50 stood at 4.44 ng/mL.

B16: C597 (antibody, V domains shown)
VH: QVQLVQSGPEVKKPGTSVKVSCKASGFTFTNSAVQWVRQSRRQRLEWIGWIVVGSGNTNYAQKFQERVTITRDMSTSTAYMELSSLRSEDTAVYYCAAVDCNSTSCYDAFDIWGQGTMVTVSS
VL: EIVLTQSPGTLSLSPGERATLSCRASQSFRSSYLAWYQQKPGQAPRLLIYGASSRATGIPDRFSGSGSGSDFTLTISRLEPEDFAVYYCQQYDISPWTFGQGTKVEIK
B16 came in with an EC50 of 3.77 ng/mL.

For orientation: EC50 means the midpoint of the concentration-response curve.

Values taken from patent US20220195015A1 (published 2022).
